Laboratory results as given in the supplement of paper PMC9170038.

Tested on: MS2 coat protein
Assay: apparent KD of MS2 coat protein; designed switch direction (-1 OFF switch, 1 ON switch): -1; higher = weaker reporter binding
How it was run: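 SNAP-549-labelled MS2 coat protein was titrated, doubling from 0.7 or 1.5 nM to 3 µM, over designed RNA switches transcribed on Illumina chips by stalled E. coli RNA polymerase. Runs were done without input, with 200 uM small-molecule ligand, or with an oligonucleotide input. Apparent KD is the per-design median over clusters of curve-fitted normalised fluorescence.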

[1] = input ligand: microRNA oligo, concentration not stated
[2] = Eterna round: R95, input ligand: microRNA oligo, concentration not stated
[3] = Eterna round: R95, input ligand: FMN 200 uM
[4] = Eterna round: R95, input ligand: none

Row | Sequence | apparent KD of MS2 coat protein (input ligand: FMN 200 uM) | apparent KD of MS2 coat protein (input ligand: none) | apparent KD of MS2 coat protein [2] | other results
1 | GUACCAAAUGUAGGAUAUGGAUCCGAUUAGGAUCCAGAAGGACAUGAGGAUCACCCAUGUACAUGAGGAUCACCCAUUAGGUAC [Fiskers ExNg1 - 11] (Eterna round: R96, puzzle: Exclusion NG 1) | 0.0972 µM | 0.0342 µM |  | apparent KD of MS2 coat protein [1]: 0.0263 µM
2 | GAAUCGCAUGUUAGGAUAUAUCUGUCGGAGUAUGGAUAGAAGGGACAUGAGGAUCACCCAUGUGAAGGCCGUUC [Eternabot (L1) Solution 58] (Eterna round: R97, puzzle: Brourd's mod of Exclusion 4) | 0.21 µM | 0.0901 µM |  | 
3 | AUUAAUCAGCAGGAUAUAAGUAUCUGAAGGUGGUUAGAAGGGCUGACAUGAGGAUCACCCAUGUGCUCUUCGUG [Vevetigeat] (puzzle: Exclusion 6) |  |  | 0.0124 µM | 
4 | GCUUCUGGGCAAGGAUAUCCUGCGCUGUUCUGGUUCGUGUCUGUCACAUGAGGAUCACCCAUGUGGGAGAAGGUGCCUGUGGUG [Design 69] (Eterna round: R96, puzzle: Exclusion NG 2) | 0.0187 µM | 0.0195 µM |  | apparent KD of MS2 coat protein [1]: 0.0113 µM
5 | UGUAUUAUAGGAUAUCACAACCUGGACAUGAGGAUCACCCAUGUGGUUGCAUGCUGUCGAUGAGAAGGAUAGGGCG [Eternabot (L1) Solution 43] (Eterna round: R97, puzzle: Exclusion 5) | 0.0228 µM | 0.0219 µM |  | 
6 | UGUUGUCGCGCAGGAUAUGUAUGAGGAUCACCCAUAAGAGUAUAUUUACCAUGAGGAUCACCCAUGUAGAAGGGCGGGACAACA [pwkr exNG2 2xF5 1xFMN.11] (Eterna round: R96, puzzle: Exclusion NG 2) | 0.105 µM | 0.0736 µM |  | apparent KD of MS2 coat protein [1]: 0.0466 µM
7 | UAAACAAGCUUAAGAUCCUACAUGAGGAUCACCCAUGUGCUCGUCUUGUAACGUACUGUGACGAAAGUCACGGUACG [JL TOV1 3.09] (Eterna round: R97, puzzle: Sensor, turn-off variant 1) | 0.185 µM | 0.228 µM |  | 
8 | UAUCUUCAUAUCACAUGAGGAUCACCCAUGUUAUUCAUCUCGUAGGAUAUCGAGGUUUUUUUUUUCGAGAAGGACGUAUUGUUU [JR_ExcNG3_Sub078] (Eterna round: R96, puzzle: Exclusion NG 3) | 0.183 µM | 0.18 µM |  | apparent KD of MS2 coat protein [1]: 0.159 µM
9 | AGUGGGUCAGGAUAUUCUAUUAAUUACAUGAGGAUCACCCAUGUGAAUGGACAAGGGUGUGAAGAAGGGACUUGCG [Omei Ex5 A17d] (Eterna round: R97, puzzle: Exclusion 5) | 0.324 µM | 0.546 µM |  | 
10 | GAGUGACAUGAGGAUCACCCAUGUGAGGAUAUCGGACGGACCUAGUUAGCUUCCGCCGCGAGAAGGCACAUCGG [Exclusion 1 V24] (puzzle: Exclusion 1) |  |  | 0.0631 µM | 
11 | UUUAUGCUAGGAUAUGCACCCUCGAACAUGAGGAUCACCCAUGUACAAUAAACGCAUGAAGCAGAAGGAGCUUCCA [EX5 A.20] (Eterna round: R97, puzzle: Exclusion 5) | 0.0564 µM | 0.0371 µM |  | 
12 | AAGAAACAUGAGGAUCACCCAUGUGAGGAUAUGAUCAAGAAAAGAAAAGAAAGAAGAGUCAGAAGGCACAAAGG [salish99-ex1_r3_065] (puzzle: Exclusion 1) |  |  | 0.291 µM | apparent KD of MS2 coat protein [3]: 0.282 µM; apparent KD of MS2 coat protein [4]: 0.418 µM
13 | UACCGGCGGACCGAGGCUUUUUGCUCGUCUUGUACUACAACAUGAGGAUCACCCAUGUGGUGGUGGUCCGUUGUAGU [JL ViennaUCT Bitein mod 6] (puzzle: Sensor v3, turn-off variant 2) |  |  | 0.00816 µM | apparent KD of MS2 coat protein [3]: 0.0189 µM; apparent KD of MS2 coat protein [4]: 0.0254 µM
14 | UCCUGACAUGAGGAUCACCCAUGUUAGGAUAUGACAUUUGGCGCGACAGUGUGGAGUGUUAGAAGGGAUGUGGG [-29.9, -27.2 kcal, A 24%] (Eterna round: R97, puzzle: Exclusion 1) | 0.0183 µM | 0.0165 µM |  | 
15 | CUUAAUUGUGACAUGGGUGACAUGAGGAUCACCCAUGUCACAAGCUUUUUGUUCGUCUUAUAAUUAACCCAUGUCAC [Stov1/13-B3] (Eterna round: R97, puzzle: Sensor, turn-off variant 1) | 0.0449 µM | 0.0527 µM |  | 
16 | CUGAUGUCAGGAUAUCAGAAAAGGUGCGAGGACGCACCAAAUGAGAAGGGACAUGAGGAUCACCCAUGUAAAAC [Inbeenen] (puzzle: Exclusion 4) |  |  | 0.0192 µM | 
17 | AGUGUGAGGCAGGAUAUGCUAUAUGUACGUAAUGCAGAAGGGUCUACAUGAGGAUCACCCAUGUGUGCGGUUGA [Ex6 #8] (Eterna round: R97, puzzle: Exclusion 6) | 0.309 µM | 0.289 µM |  | 
18 | UUAAUGUGAGGAUAUCAGGUGUGCUAGCGUACUGGUACAUCUGAGAAGGCACAUGAGGAUCACCCAUGUUUCUU [JL-ex4-3.23 Brourd mod] (puzzle: Exclusion 4) |  |  | 0.0267 µM | 

Row | Sequence | apparent KD of MS2 coat protein (input ligand: FMN 200 uM) | apparent KD of MS2 coat protein (input ligand: none) | apparent KD of MS2 coat protein [2] | other results
19 | ACUAGGCGAGGAUAUACAUGCUUAACGCAGGAAAAGCUGCGACAUGAGGAUCACCCAUGUAGAAGGCGCAAAUA [Xege] (puzzle: Exclusion 2) |  |  | 0.0154 µM | 
20 | UUUGAAAAUGUAGGAUAUGGAAUAGGUAAGUAGCCAGAAGGACAUGAGGAUCACCCAUGUAAGAACAUAGGGAAAGAUAUGUUU [No clue what I'm doing] (Eterna round: R96, puzzle: Exclusion NG 1) | 0.0908 µM | 0.0447 µM |  | apparent KD of MS2 coat protein [1]: 0.0329 µM
21 | GCAUGGUGAGGAUAUGCAGAAGGGCAACGGUCAUCAUGACUACAUGAGGAUCACCCAUGUAGAAGGCACACAUG [Betearor] (puzzle: Exclusion 2) |  |  | 0.0425 µM | 
22 | GAGUGACAUGAGGAUCACCCAUGUGAGGAUAUCGGACGGACCUAGUUAACUUCCGCCGCGAGAAGGCACAUCGG [Exclusion 1 V23] (Eterna round: R96, puzzle: Exclusion 1) | 0.0752 µM | 0.084 µM |  | apparent KD of MS2 coat protein [1]: 0.0456 µM
23 | CUUUUGUGAGGAUAUUAGUAGUAAAUAAAUAUAAUUACUACUGAGAAGGCACAUGAGGAUCACCCAUGUUCCUC [salish99_ex4_r3_058] (puzzle: Exclusion 4) |  |  | 0.0355 µM | 
24 | GGAGCGAUUCUCUUAGCAGACAUGAGGAUCACCCAUGUAUGCAAGCUCUUAUUUUGCUCGUCUUACCGGGAGUUGCU [Ridizaer] (puzzle: Sensor v3, turn-off variant 1) |  |  | 0.0207 µM | apparent KD of MS2 coat protein [3]: 0.0136 µM; apparent KD of MS2 coat protein [4]: 0.013 µM
25 | UCUGGUGCAGGAUAUACAUGAGGAUCACCCAUGUGAUCAGCAGUCCUCGGACUGCAAUGUAGAAGGGCACCAGA [E3/1-D2] (Eterna round: R97, puzzle: Exclusion 3) | 0.0471 µM | 1.23 µM |  | 
26 | UUUAGUUCAGGAUAUGUAGAUUUUAACAUGAGGAUCACCCAUGUAGAUCCUGAAUUAACUACAGAAGGGAACAUUC [Exclusion 5: 2:c] (Eterna round: R96, puzzle: Exclusion 5) | 0.0508 µM | 0.0207 µM |  | apparent KD of MS2 coat protein [1]: 0.0156 µM
27 | UACAUGAGGAUCACCCAUGUCUUUUCGUGUAUGGUACCCAUCUAGGAUAUCGUGUUAUUUAACCACGAGAAGGAGAGUAUCAAU [MOD5 Solution 21 by JMF] (Eterna round: R96, puzzle: Exclusion NG 3) | 0.0656 µM | 0.0665 µM |  | apparent KD of MS2 coat protein [1]: 0.0559 µM
28 | CAGUACUGAGGAUAUACAUGAGGAUCACCCAUGUGUUCCUGCUAGGAAACUAGCAAAAGUAGAAGGCAGUACUG [salish99_ex3_r3_098x] (Eterna round: R96, puzzle: Exclusion 3) | 0.516 µM | 0.0275 µM |  | apparent KD of MS2 coat protein [1]: 0.0261 µM
29 | AAACACUGAGGAUAUGCAUAACAACAAAGCCUCACGUGCCAACAUGAGGAUCACCCAUGUAGAAGGCAGUCCAA [Mod R3 Insanara 16 - Jieux - Exclusion 2] (Eterna round: R97, puzzle: Exclusion 2) | 0.025 µM | 0.03 µM |  | 
30 | AAAUAGCAUGAGGAUAUCGAAUUAUAUAUAGUACGAGAAGGCAUGACAUGAGGAUCACCCAUGUUUUGUUGGGA [EX6 #1] (Eterna round: R97, puzzle: Exclusion 6) | 0.124 µM | 0.0575 µM |  | 
31 | UUUUCUUUUGUGAGGAUAUACUUGUUUUUUUUUUUGUAGAAGGCACAUGAGGAUCACCCAUGUUUUCUUUUCUG [JR_BME4_Sub026] (puzzle: Brourd's mod of Exclusion 4) |  |  | 0.0206 µM | 
32 | AGCUGUGGCCGAGGAUAUCCACAUGAGGAUCACCCAUGUCGAUACGCCGUUAAAGGCGAUAUAAGGGAGAAGGCGGUCUCAGCA [Eli eng2 - 052] (Eterna round: R96, puzzle: Exclusion NG 2) | 0.00735 µM | 0.0102 µM |  | apparent KD of MS2 coat protein [1]: 0.00669 µM
33 | UCUGGUCGGAAGGAUAUGGUCGGGUCAAAUCGGCCAGAAGGUCUGACAUGAGGAUCACCCAUGUGAGUCCAAAG [Esceus] (puzzle: Exclusion 6) |  |  | 0.0216 µM | apparent KD of MS2 coat protein [3]: 0.0517 µM; apparent KD of MS2 coat protein [4]: 0.0208 µM
34 | GCCGAUUAAGUGAGGAUAUACCUAUGGAUACAUAGGUAGAAGGUACAUGAGGAUCACCCAUGUUCCUCAACGGC [Fiskers BMX 4 - 9] (puzzle: Brourd's mod of Exclusion 4) |  |  | 0.00893 µM | 
35 | GAAUAGGCAGGAUAUACAUGAGGAUCACCCAUGUGCCUGCGAAAGGUACGUUCGAAAGGUAGAAGGGCCUAAAC [ChP 13.04.2015 #6] (puzzle: Exclusion 3) |  |  | 0.0122 µM | 
36 | AGUGGGCUAGGAUAUCGAUGAACUCACAUGAGGAUCACCCAUGUGUCUUCGGUGGGCUCACGAGAAGGAGUAAGUU [Teanislaa] (puzzle: Exclusion 5) |  |  | 0.0157 µM | 
